Several values for one entry are separate records, joined by “and”; a condition that tells them apart may be missing. Identical values can stand only once. Like-named read-outs stand apart in the source and are kept apart here.

Assay [1] addresses H7N9病毒的HA蛋白(购自ACROBiosystems) (H7N9 influenza virus). Kind of assay: ELISA, HA coated at 100 ng/well, negative control, anti-human IgG-HRP. For orientation: ELISA stands for enzyme-linked immunosorbent assay.
For assay [2] the target is unchanged.
Assay [3] shares this target. The source holds these as a separate data set.
The target in assay [4] is H7N9病毒 A/Anhui/1/2013 (H7N9 influenza virus A/Anhui/1/2013). Kind of assay: cell-based or functional assay.

阴性对照 (negative control of the ELISA): the 450nm absorbance in assay [1] is 0.0675 OD450 and 0.0554 OD450.

B1: 抗H7N9全人源单克隆抗体7T33 (antibody, V domains shown)
VH: QVQLVESGAEVKKPGASVKVSCKASGTIFYSTEINWVRQATGQGLEWMGWMNPESGEYGFAQKFQGRVTMTRNTSITTAYMELSSLTSEDTAVYYCAYGNAECSAGGSCTNWFGEPWGQGTLVTVSS
VL: SSELTQDPAVSVALGQTVRITCQGDRLRSTTASWYQQKPGQAPVLVIYGKNNRPSGIPDRFSGSSSGNTASLTITGAQAEDEADYYCNSREYSGTHLVFGGGTKLTVLV
For B1, the Kd (as a rule, the concentration at which binding is half-saturated) in assay [2] worked out at 5.43 nM. Besides, the 450nm absorbance in assay [3] was 1.53 OD450 and 1.86 OD450 and 1.8 OD450. The molecule also showed an IC50, micro-neutralisation ELISA on MDCK cells infected with H7N9 virus in assay [4] of 12.8 µg/mL.

(Values after patent publication CN111434682A.)
